We go through 27 sequences from the supplement of paper PMC9170038.

The data set concerns MS2 coat protein. Kind of data set: apparent KD of MS2 coat protein; designed switch direction (-1 OFF switch, 1 ON switch): -1; higher = weaker reporter binding. In outline:
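Designed RNA switches sharing common flanks were transcribed on Illumina chips by stalled E. coli RNA polymerase. They were titrated with SNAP-549-labelled MS2 coat protein, from 0.7 or 1.5 nM doubling to 3 µM, in Tris-HCl pH 7.5 buffer with KCl, MgCl2, BSA, DTT, tRNA and Tween-20. Titrations ran without input, with 200 uM small-molecule ligand, or with an oligonucleotide input. The apparent KD of each design is the median over its clusters, after curve-fitting of normalised cluster fluorescence.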

The mark [1] stands for this setting: Eterna round: R95, input ligand: FMN 200 uM.
The mark [2] stands for this setting: Eterna round: R95, input ligand: microRNA oligo, concentration not stated.
[3] abbreviates: Eterna round: R95, input ligand: none.
[4] abbreviates: input ligand: microRNA oligo, concentration not stated.

Regarding “ACAAGCUUUUAGAUUCUUAACAUGAGGAUCACCCAUGUGCUCGUCUUAUUUUCCGGCGGGCCGCCGGAAAAGCUUGU (Eterna round: R97, puzzle: Sensor, turn-off variant 1)”, the “apparent KD of MS2 coat protein” value runs as follows: (input ligand: FMN 200 uM) 92.5 nM; (input ligand: none) 93.8 nM.
The corresponding values for “ACAAGCUUUUAGAUUUUCAACAUGAGGAUCACCCAUGUUCGUCUUAGGCGAGUGCGAGUGCGGUGUACUCGUAUUAG [JL TOV1 3.85 sellena mod] (Eterna round: R97, puzzle: Sensor, turn-off variant 1)” are 22.2 nM and 21.9 nM.
Take “ACAAGCUUUUUGUUCGUCUUAUAAUAAUAAAUAAAGAUAACAUGAGGAUCACCCAUGUAAAGAAGACGGCCUCAUGU [Sesor Array 20 - Jieux - Sensor v3, turn-off variant 2] (puzzle: Sensor v3, turn-off variant 2)”: the “apparent KD of MS2 coat protein” value under setting [1] turned out to be 785 nM, the “apparent KD of MS2 coat protein” value under setting [2] came to 233 nM and the “apparent KD of MS2 coat protein” value under setting [3] turned out to be 1120 nM.
The corresponding values for “ACAAGCUUUUUGUUCGUCUUAUACACUCCUAAUAAGAAAACAUGAGGAUCACCCAUGUAAGAAAUAAGAACUCAUGU [Sesor Array 1 - Jieux - Sensor v3, turn-off variant 2] (puzzle: Sensor v3, turn-off variant 2)” are 225 nM, 303 nM and 213 nM.
“ACAAGUUUUUAGAUUCUUAACAUGAGGAUCACCCAUGUGCUCGUCUUGUUUGUACUAUCACCGCCGGUGAUAGUACA (Eterna round: R97, puzzle: Sensor, turn-off variant 1)”: the “apparent KD of MS2 coat protein” value by setting is: (input ligand: FMN 200 uM) 65 nM; (input ligand: none) 81 nM.
With “ACAAUGUCAGGAUAUGAACAGCGCGGUCACAAGGAUUGCUUUCAGAAGGGACAUGAGGAUCACCCAUGUCGAUA [Eternabot (L1) Solution 91] (Eterna round: R97, puzzle: Exclusion 4)”, the “apparent KD of MS2 coat protein” value is, setting by setting: (input ligand: FMN 200 uM) 23 nM; (input ligand: none) 20 nM.
Take “ACAAUGUUAGGAUAUCUGACAACUAGCCUCGGCUAGUCGAAAGAGAAGGAACAUGAGGAUCACCCAUGUAGAUC [EX4 #71] (Eterna round: R97, puzzle: Exclusion 4)”: the “apparent KD of MS2 coat protein” value (input ligand: FMN 200 uM) was 523 nM and the “apparent KD of MS2 coat protein” value (input ligand: none) was 146 nM.
For the sequence “ACAGCAUAGUUAGGAUAUUGCCGACACUGUGUGUUCCUACACAUGAGGAUCACCCAUGUGAAGCGCGAGAAGGAACUAACUGAA [Eternabot solution 8] (Eterna round: R96, puzzle: Exclusion NG 2)”, the “apparent KD of MS2 coat protein” value amounted to 430 nM (input ligand: FMN 200 uM), 179 nM under setting [4] and 348 nM (input ligand: none).
Turning to “ACAGGUGCAGGAUAUACAUGAGGAUCACCCAUGUAGAUCAACCAGCGAUAGCUGGAAUGUAGAAGGGCACCUGU [E3/5-D1] (Eterna round: R97, puzzle: Exclusion 3)”, the “apparent KD of MS2 coat protein” value (input ligand: FMN 200 uM) was 94.4 nM and the “apparent KD of MS2 coat protein” value (input ligand: none) stood at 18.5 nM.
“ACAUGAGGAUCACCCAUGUAAACAUAAUGGCUGAUGUAGAGUCAGGAUAUGCGUGGCUAACAAUCGCAGAAGGGACAAGACUGG [Deportation 30 - Jieux - Exclusion NG 3] (Eterna round: R96, puzzle: Exclusion NG 3)”: the “apparent KD of MS2 coat protein” value stood at 22.2 nM (input ligand: FMN 200 uM), 23.1 nM under setting [4] and 25 nM (input ligand: none).
The corresponding values for “ACAUGAGGAUCACCCAUGUAAACAUAAUGGCUGAUGUAGAGUCAGGAUAUGUGUGGCUAACAAUCGCAGAAGGGACAAGACUGG [Deportation 31 - Jieux - Exclusion NG 3] (Eterna round: R96, puzzle: Exclusion NG 3)” are 23.5 nM, 19.2 nM and 31.8 nM.
“ACAUGAGGAUCACCCAUGUAAUGAAGGGUACUAUAUUAAACGUAGGAUAUCGAUGUAAGUUUGUACGAGAAGGACGAUUGCCUU [JR_ExcNG3_Sub052] (Eterna round: R96, puzzle: Exclusion NG 3)”: the “apparent KD of MS2 coat protein” value is, setting by setting: (input ligand: FMN 200 uM) 48.2 nM; under setting [4], 39.5 nM; (input ligand: none) 84.1 nM.
The corresponding values for “ACAUGAGGAUCACCCAUGUAAUGAUGGGUACUAUAUUAUUCGUAGGAUAUCGUUGUUAGUUUGUGCGAGAAGGACGUUUGCCUU [JR_ExcNG3_Sub056] (Eterna round: R96, puzzle: Exclusion NG 3)” are 994 nM, 667 nM and 698 nM.
Consider “ACAUGAGGAUCACCCAUGUACACGUAAUGGCUCAUGUAGAGUGAGGAUAUGUGAGACGAACGAGAACAGAAGGCACAAGACAGG [Deportation 9 - Jieux - Exclusion NG 3] (Eterna round: R96, puzzle: Exclusion NG 3)”, for which the “apparent KD of MS2 coat protein” value amounted to 29.1 nM (input ligand: FMN 200 uM), 30.1 nM under setting [4] and 35.9 nM (input ligand: none).
The like results for “ACAUGAGGAUCACCCAUGUCAGGCGGGUCUACUCCGGCUGUUGAGGAUAUAGUUCGGUAUCCGCGCUAGAAGGUGAGGGCCGGC [Aenatbe mod 23] (Eterna round: R96, puzzle: Exclusion NG 3)” were, in that order, 20.8 nM, 14.9 nM and 21.8 nM.
The like results for “ACAUGAGGAUCACCCAUGUCAGGUUGGUUUUCUCCGGCUGUUGAGGAUAUAGUCCGGUAUCCGCGCUAGAAGGUGAGGGUUGGC [Aenatbe mod 13] (Eterna round: R96, puzzle: Exclusion NG 3)” were, in that order, 64.5 nM, 54.4 nM and 78.7 nM.
The like results for “ACAUGAGGAUCACCCAUGUCCGGCUGGUCUGUUCCGGUUGUCGAGGAUAUAGUUCGGUGUUCGCGCUAGAAGGUGGGAGCUGGA [Aenatbe mod 54] (Eterna round: R96, puzzle: Exclusion NG 3)” were, in that order, 186 nM, 103 nM and 136 nM.
Regarding “ACAUGAGGAUCACCCAUGUCCGUCUGGUCUGUCUCGGCUGUCGAGGAUAUAGCUCGGUAUCCGCGCUAGAAGGCGGGAGUCGGC [Aenatbe mod 96] (Eterna round: R96, puzzle: Exclusion NG 3)”, the “apparent KD of MS2 coat protein” value turned out to be 26.4 nM (input ligand: FMN 200 uM), 17.3 nM under setting [4] and 31.9 nM (input ligand: none).
For “ACAUGAGGAUCACCCAUGUCUGGCGGGUCCUCUCCGGCUGUUGAGGAUAUAGUUCGGUAUCCGCGCUAGAAGGUGAGGGCCGGC [Aenatbe mod 20] (Eterna round: R96, puzzle: Exclusion NG 3)”, the “apparent KD of MS2 coat protein” value by setting is: (input ligand: FMN 200 uM) 21.3 nM; under setting [4], 14.6 nM; (input ligand: none) 16.5 nM.
The like results for “ACAUGAGGAUCACCCAUGUGAAACCAAUGGCUGACUUUGAGACAGGAUAUUCGUGCAUAUCAUACGAAGAAGGGUCAUUACUGG [Deportation 96 - Jieux - Exclusion NG 3] (Eterna round: R96, puzzle: Exclusion NG 3)” were, in that order, 63.5 nM, 45.8 nM and 55.2 nM.
The corresponding values for “ACAUGAGGAUCACCCAUGUGACAAGAAUGGCUGACACAGAGAUAGGAUAUAGGUGCAUAUCUAACCUAGAAGGGUCAUGACUGG [Deportation 76 - Jieux - Exclusion NG 3] (Eterna round: R96, puzzle: Exclusion NG 3)” are 40.2 nM, 23.3 nM and 26.5 nM.
In the case of “ACAUGUAAUGCAGGAUAUCUGACACAUGAGGAUCACCCAUGUGACCAGAGGAAUUGCUAUGAGUCGGAGAAGGGUAUGUACAUG [Ex NG2 #54] (Eterna round: R96, puzzle: Exclusion NG 2)”, the “apparent KD of MS2 coat protein” value reads like this: (input ligand: FMN 200 uM) 37.7 nM; under setting [4], 20.3 nM; (input ligand: none) 27.1 nM.
“ACAUGUAAUGUAGGAUAUUUUACACAUGAGGAUCACCCAUGUGACCGGAGGCUUUACUAUGAGUAAGAGAAGGGUAUGUACAUG [Ex NG2 #62] (Eterna round: R96, puzzle: Exclusion NG 2)”: the “apparent KD of MS2 coat protein” value is 90.5 nM (input ligand: FMN 200 uM), 56.6 nM under setting [4] and 86.7 nM (input ligand: none).
Regarding “ACAUGUCAUCGAGGAUAUUGGACACAUGAGGAUCACCCAUGUACUCGGAGGCUCUACCAUGAGUUCGAGAAGGCGAUGUACAUU [Ex NG2 #77] (Eterna round: R96, puzzle: Exclusion NG 2)”, the “apparent KD of MS2 coat protein” value is, setting by setting: (input ligand: FMN 200 uM) 542 nM; under setting [4], 256 nM; (input ligand: none) 230 nM.
The corresponding values for “ACAUGUCAUCGAGGAUAUUGUACACAUGAGGAUCACCCAUGUAUUCGGUUGCUCUAGCAUGAGUUCGAGAAGGCGAUGUACAUU [Ex NG2 #83] (Eterna round: R96, puzzle: Exclusion NG 2)” are 153 nM, 134 nM and 194 nM.
For “ACAUGUUAUGUAGGAUAUUAUACACAUGAGGAUCACCCAUGUAACCGGAGGCUUUACUAUGAGUAUGAGAAGGGUAUGAACAUG [Ex NG2 #65] (Eterna round: R96, puzzle: Exclusion NG 2)”, the “apparent KD of MS2 coat protein” value under setting [4] amounted to 64.2 nM.
In the case of “ACAUGUUAUGUAGGAUAUUGGACACAUGAGGAUCACCCAUGUACCCGGAGGCUUUACUAUGAGUUCGAGAAGGGUAUGAACAUG [Ex NG2 #68] (Eterna round: R96, puzzle: Exclusion NG 2)”, the “apparent KD of MS2 coat protein” value reads like this: (input ligand: FMN 200 uM) 39.8 nM; under setting [4], 21.1 nM; (input ligand: none) 29.4 nM.
